Assay results reported in patent US20250339569A1 (3B PHARMACEUTICALS, published 2025).
Starred links: 1 amine or outer side, 2 acyl side, 3 side chain; linkers in the order of their positions; H or OH if unused. Positions of bridges follow the written chain, without caps; N, C: chain ends. Non-standard residues stand in square brackets, D forms with d. Groups on a side chain read outwards from the residue. Primed or numbered codes have the meaning given here. *: point of attachment. DOTA = O=C(O)CN1CCN(CC(=O)O)CCN(CC(=O)*)CCN(CC(=O)O)CC1; Ttds(3) = NCCCOCCOCCOCCCNC(=O)CCC(=O)*; mXylylene = c1cc(C[*:1])cc(C[*:2])c1; 3Amb = NCc1cccc(C(=O)O)c1; dNMeA = CN[C@H](C)C(=O)O; 4Amc = not defined here; AEEA = NCCOCCOCC(=O)O; Ttds″ = Ttds spacer; Sar = CNCC(=O)O

B1: 3BP-3428 (peptide)
peptide: Ac-K([AEEA-DOTA])VYCE[dP]DWLTWAC-NH2
modifications: linker 4-13 via mXylylene
notes: also called Ac-Lys(DOTA-O2Oc)-Val-Tyr-[Cys(3MeBn)-Glu-pro-Asp-Trp-Leu-Thr-Trp-Ala-Cys]-NH2
B2: 3BP-3427 (peptide)
peptide: Ac-K(DOTA)VYCE[dP]DWLTWAC-NH2
modifications: linker 4-13 via mXylylene
SMILES: CC(=O)N[C@@H](CCCCNC(=O)CN1CCN(CC(=O)O)CCN(CC(=O)O)CCN(CC(=O)O)CC1)C(=O)N[C@H](C(=O)N[C@@H](Cc1ccc(O)cc1)C(=O)N[C@H]1CSCc2cccc(c2)CSC[C@@H](C(N)=O)NC(=O)[C@H](C)NC(=O)[C@H](Cc2c[nH]c3ccccc23)NC(=O)[C@H]([C@@H](C)O)NC(=O)[C@H](CC(C)C)NC(=O)[C@H](Cc2c[nH]c3ccccc23)NC(=O)[C@H](CC(=O)O)NC(=O)[C@H]2CCCN2C(=O)[C@H](CCC(=O)O)NC1=O)C(C)C
notes: also called Ac-Lys(DOTA)-Val-Tyr-[Cys(3MeBn)-Glu-pro-Asp-Trp-Leu-Thr-Trp-Ala-Cys]-NH2
B3: 3BP-3840 (peptide)
peptide: Ac-K(DOTA)VYCE[dP]DWLTWSC-NH2
modifications: linker 4-13 via 3MeBn
notes: also called Ac-Lys(DOTA)-Val-Tyr-[Cys(3MeBn)-Glu-pro-Asp-Trp-Leu-Thr-Trp-Ser-Cys]-NH2
B4: 3BP-2837 (peptide)
peptide: Ac-VYCEGDWLTWQC-NH2
modifications: linker 3-12 via mXylylene
SMILES: CC(=O)N[C@H](C(=O)N[C@@H](Cc1ccc(O)cc1)C(=O)N[C@H]1CSCc2cccc(c2)CSC[C@@H](C(N)=O)NC(=O)[C@H](CCC(N)=O)NC(=O)[C@H](Cc2c[nH]c3ccccc23)NC(=O)[C@H]([C@@H](C)O)NC(=O)[C@H](CC(C)C)NC(=O)[C@H](Cc2c[nH]c3ccccc23)NC(=O)[C@H](CC(=O)O)NC(=O)CNC(=O)[C@H](CCC(=O)O)NC1=O)C(C)C
B5: 3BP-3304 (peptide)
peptide: Ac-VYCE[Sar]DWLTWGC-NH2
modifications: linker 3-12 via mXylylene
SMILES: CC(=O)N[C@H](C(=O)N[C@@H](Cc1ccc(O)cc1)C(=O)N[C@H]1CSCc2cccc(c2)CSC[C@@H](C(N)=O)NC(=O)CNC(=O)[C@H](Cc2c[nH]c3ccccc23)NC(=O)[C@H]([C@@H](C)O)NC(=O)[C@H](CC(C)C)NC(=O)[C@H](Cc2c[nH]c3ccccc23)NC(=O)[C@H](CC(=O)O)NC(=O)CN(C)C(=O)[C@H](CCC(=O)O)NC1=O)C(C)C
notes: also called Ac-Val-Tyr-[Cys(3MeBn)-Glu-Nmg-Asp-Trp-Leu-Thr-Trp-Gly-Cys]-NH2
B6: 3BP-3429 (peptide)
peptide: {DOTA-3Amb}-VYCE[dP]DWLTWAC-NH2
modifications: linker 3-12 via mXylylene
SMILES: CC(C)C[C@@H]1NC(=O)[C@H](Cc2c[nH]c3ccccc23)NC(=O)[C@H](CC(=O)O)NC(=O)[C@H]2CCCN2C(=O)[C@H](CCC(=O)O)NC(=O)[C@@H](NC(=O)[C@H](Cc2ccc(O)cc2)NC(=O)[C@@H](NC(=O)c2cccc(CNC(=O)CN3CCN(CC(=O)O)CCN(CC(=O)O)CCN(CC(=O)O)CC3)c2)C(C)C)CSCc2cccc(c2)CSC[C@@H](C(N)=O)NC(=O)[C@H](C)NC(=O)[C@H](Cc2c[nH]c3ccccc23)NC(=O)[C@H]([C@@H](C)O)NC1=O
notes: also called DOTA-Mamb-Val-Tyr-[Cys(3MeBn)-Glu-pro-Asp-Trp-Leu-Thr-Trp-Ala-Cys]-NH2
B7: 3BP-3307 (peptide)
peptide: Ac-VYCE[Sar]DWLGWQC-NH2
modifications: linker 3-12 via mXylylene
SMILES: CC(=O)N[C@H](C(=O)N[C@@H](Cc1ccc(O)cc1)C(=O)N[C@H]1CSCc2cccc(c2)CSC[C@@H](C(N)=O)NC(=O)[C@H](CCC(N)=O)NC(=O)[C@H](Cc2c[nH]c3ccccc23)NC(=O)CNC(=O)[C@H](CC(C)C)NC(=O)[C@H](Cc2c[nH]c3ccccc23)NC(=O)[C@H](CC(=O)O)NC(=O)CN(C)C(=O)[C@H](CCC(=O)O)NC1=O)C(C)C
notes: also called Ac-Val-Tyr-[Cys(3MeBn)-Glu-Nmg-Asp-Trp-Leu-Gly-Trp-Gln-Cys]-NH2
B8: 3BP-3058 (peptide)
peptide: Ac-VYCEGDWLTWAC-NH2
modifications: linker 3-12 via mXylylene
SMILES: CC(=O)N[C@H](C(=O)N[C@@H](Cc1ccc(O)cc1)C(=O)N[C@H]1CSCc2cccc(c2)CSC[C@@H](C(N)=O)NC(=O)[C@H](C)NC(=O)[C@H](Cc2c[nH]c3ccccc23)NC(=O)[C@H]([C@@H](C)O)NC(=O)[C@H](CC(C)C)NC(=O)[C@H](Cc2c[nH]c3ccccc23)NC(=O)[C@H](CC(=O)O)NC(=O)CNC(=O)[C@H](CCC(=O)O)NC1=O)C(C)C
B9: 3BP-3279 (peptide)
peptide: {DOTA-Ttds″}-VYCE[dA]DWLTWAC-NH2
modifications: linker 3-12 via mXylylene; not fully specified
notes: also called DOTA-Ttds-Val-Tyr-[Cys(3MeBn)-Glu-ala-Asp-Trp-Leu-Thr-Trp-Ala-Cys]-NH2
B10: 3BP-3430 (peptide)
peptide: {DOTA-4Amc}-VYCE[dP]DWLTWAC-NH2
modifications: linker 3-12 via mXylylene; reading uncertain
notes: also called DOTA-4Amc-Val-Tyr-[Cys(3MeBn)-Glu-pro-Asp-Trp-Leu-Thr-Trp-Ala-Cys]-NH2
B11: 3BP-3313 (peptide)
peptide: Ac-VYCE[Sar]DWLTWAC-NH2
modifications: linker 3-12 via mXylylene
SMILES: CC(=O)N[C@H](C(=O)N[C@@H](Cc1ccc(O)cc1)C(=O)N[C@H]1CSCc2cccc(c2)CSC[C@@H](C(N)=O)NC(=O)[C@H](C)NC(=O)[C@H](Cc2c[nH]c3ccccc23)NC(=O)[C@H]([C@@H](C)O)NC(=O)[C@H](CC(C)C)NC(=O)[C@H](Cc2c[nH]c3ccccc23)NC(=O)[C@H](CC(=O)O)NC(=O)CN(C)C(=O)[C@H](CCC(=O)O)NC1=O)C(C)C
notes: also called Ac-Val-Tyr-[Cys(3MeBn)-Glu-Nmg-Asp-Trp-Leu-Thr-Trp-Ala-Cys]-NH2
B12: 3BP-3282 (peptide)
peptide: Ac-VYCE[dP]DWLTWAC-NH2
modifications: linker 3-12 via mXylylene
SMILES: CC(=O)N[C@H](C(=O)N[C@@H](Cc1ccc(O)cc1)C(=O)N[C@H]1CSCc2cccc(c2)CSC[C@@H](C(N)=O)NC(=O)[C@H](C)NC(=O)[C@H](Cc2c[nH]c3ccccc23)NC(=O)[C@H]([C@@H](C)O)NC(=O)[C@H](CC(C)C)NC(=O)[C@H](Cc2c[nH]c3ccccc23)NC(=O)[C@H](CC(=O)O)NC(=O)[C@H]2CCCN2C(=O)[C@H](CCC(=O)O)NC1=O)C(C)C
notes: also called Ac-Val-Tyr-[Cys(3MeBn)-Glu-pro-Asp-Trp-Leu-Thr-Trp-Ala-Cys]-NH2
B13: 3BP-3281 (peptide)
peptide: Ac-VYCE[dNMeA]DWLTWAC-NH2
modifications: linker 3-12 via mXylylene
SMILES: CC(=O)N[C@H](C(=O)N[C@@H](Cc1ccc(O)cc1)C(=O)N[C@H]1CSCc2cccc(c2)CSC[C@@H](C(N)=O)NC(=O)[C@H](C)NC(=O)[C@H](Cc2c[nH]c3ccccc23)NC(=O)[C@H]([C@@H](C)O)NC(=O)[C@H](CC(C)C)NC(=O)[C@H](Cc2c[nH]c3ccccc23)NC(=O)[C@H](CC(=O)O)NC(=O)[C@@H](C)N(C)C(=O)[C@H](CCC(=O)O)NC1=O)C(C)C
notes: also called Ac-Val-Tyr-[Cys(3MeBn)-Glu-nma-Asp-Trp-Leu-Thr-Trp-Ala-Cys]-NH2
B14: 3BP-3046 (peptide)
peptide: Ac-VYCE[dA]DWLTWQC-NH2
modifications: linker 3-12 via mXylylene
SMILES: CC(=O)N[C@H](C(=O)N[C@@H](Cc1ccc(O)cc1)C(=O)N[C@H]1CSCc2cccc(c2)CSC[C@@H](C(N)=O)NC(=O)[C@H](CCC(N)=O)NC(=O)[C@H](Cc2c[nH]c3ccccc23)NC(=O)[C@H]([C@@H](C)O)NC(=O)[C@H](CC(C)C)NC(=O)[C@H](Cc2c[nH]c3ccccc23)NC(=O)[C@H](CC(=O)O)NC(=O)[C@@H](C)NC(=O)[C@H](CCC(=O)O)NC1=O)C(C)C
notes: also called Ac-Val-Tyr-[Cys(3MeBn)-Glu-ala-Asp-Trp-Leu-Thr-Trp-Gln-Cys]-NH2
B15: 3BP-3284 (peptide)
peptide: Ac-VYCE[dA]DWLTWGC-NH2
modifications: linker 3-12 via mXylylene
SMILES: CC(=O)N[C@H](C(=O)N[C@@H](Cc1ccc(O)cc1)C(=O)N[C@H]1CSCc2cccc(c2)CSC[C@@H](C(N)=O)NC(=O)CNC(=O)[C@H](Cc2c[nH]c3ccccc23)NC(=O)[C@H]([C@@H](C)O)NC(=O)[C@H](CC(C)C)NC(=O)[C@H](Cc2c[nH]c3ccccc23)NC(=O)[C@H](CC(=O)O)NC(=O)[C@@H](C)NC(=O)[C@H](CCC(=O)O)NC1=O)C(C)C
notes: also called Ac-Val-Tyr-[Cys(3MeBn)-Glu-ala-Asp-Trp-Leu-Thr-Trp-Gly-Cys]-NH2
B16: 3BP-3270 (peptide)
peptide: {DOTA-Ttds(3)}-VYCE[dA]DWLTWQC-NH2
modifications: linker 3-12 via mXylylene
notes: also called DOTA-Ttds-Val-Tyr-[Cys(3MeBn)-Glu-ala-Asp-Trp-Leu-Thr-Trp-Gln-Cys]-NH2
B17: 3BP-3052 (peptide)
peptide: Ac-VYCAGDWLTWQC-NH2
modifications: linker 3-12 via mXylylene
SMILES: CC(=O)N[C@H](C(=O)N[C@@H](Cc1ccc(O)cc1)C(=O)N[C@H]1CSCc2cccc(c2)CSC[C@@H](C(N)=O)NC(=O)[C@H](CCC(N)=O)NC(=O)[C@H](Cc2c[nH]c3ccccc23)NC(=O)[C@H]([C@@H](C)O)NC(=O)[C@H](CC(C)C)NC(=O)[C@H](Cc2c[nH]c3ccccc23)NC(=O)[C@H](CC(=O)O)NC(=O)CNC(=O)[C@H](C)NC1=O)C(C)C
B18: 3BP-3280 (peptide)
peptide: Ac-VYCE[dA]DWLTWAC-NH2
modifications: linker 3-12 via mXylylene
SMILES: CC(=O)N[C@H](C(=O)N[C@@H](Cc1ccc(O)cc1)C(=O)N[C@H]1CSCc2cccc(c2)CSC[C@@H](C(N)=O)NC(=O)[C@H](C)NC(=O)[C@H](Cc2c[nH]c3ccccc23)NC(=O)[C@H]([C@@H](C)O)NC(=O)[C@H](CC(C)C)NC(=O)[C@H](Cc2c[nH]c3ccccc23)NC(=O)[C@H](CC(=O)O)NC(=O)[C@@H](C)NC(=O)[C@H](CCC(=O)O)NC1=O)C(C)C
notes: also called Ac-Val-Tyr-[Cys(3MeBn)-Glu-ala-Asp-Trp-Leu-Thr-Trp-Ala-Cys]-NH2

molecular target: human carbonic anhydrase 9 (CAIX) (human, UniProt Q16790 38-459); assay: FACS competition on HT-29 cells against tracer 3BP-2776; pIC50 category A = pIC50 >8.0
Method: CAIX-expressing human HT-29 colorectal cancer cells (DSMZ, RRID: CVCL_0320) were cultured in McCoys's 5A modified medium (Biochrom, #F1015) including 10% fetal calf serum (FCS), 2 mM L-glutamine, 100 U/ml penicillin and 100 μg/mL streptomycin. Cells were detached with Accutase (Biolegend, #423201) and washed in FACS buffer (PBS including 1% FCS). Cells were diluted in FACS buffer to a final concentration of 500.000 cells per ml. 200 μL of the cell suspension were transferred to a u-shaped non-binding 96-well plate (Greiner) and cells were washed in ice-cold FACS buffer.
When biotinylated compounds were used an additional incubation step with 1 μg/mL APC-Streptavidin (Miltenyi; #130-106-791) in 50 μL FACS buffer for 30 minutes on ice was performed.
Cells were washed twice with ice-cold FACS buffer and analyzed in an Attune NxT flow cytometer (Thermo Fisher). Median fluorescence intensities (MFI) of the APC/Cy5-channel were calculated by Attune NxT software.

pIC50, > 8 pic50:
B1
B2
B3
B4
B5
B6
B7
{DOTA-Ttds″}-VYCEGDWLTWAC-NH2 (linker 3-12 via mXylylene; not fully specified) [3BP-3272]
B8
B9
B10
B11
B12
B13
B14
B15
B16
B17
B18
